Measured values: patent US20220143024A1, “METHODS OF USING IMIPRIDONES” (Board of Regents, The University of Texas System, priority 2019, published 2022)

Legend:
Assay in all cases: BioID-MS +ONC201
[1] = target: MICU2 (human) (UniProt Q8IYU8)
[2] = target: SDHAF3 (human) (UniProt Q9NRP4)
[3] = target: SFXN4 (human) (UniProt Q6P4A7)
[4] = target: PMPCA (human) (UniProt Q10713)
[5] = target: BCS1L (human) (UniProt Q9Y276)
[6] = target: NMNAT3 (human) (UniProt Q96T66)
[7] = target: ACO2 (human) (UniProt Q99798)
[8] = target: NDUFA7 (human) (UniProt O95182)
Chain of NDUFA7 (human) (O95182 2-113 limits assumed): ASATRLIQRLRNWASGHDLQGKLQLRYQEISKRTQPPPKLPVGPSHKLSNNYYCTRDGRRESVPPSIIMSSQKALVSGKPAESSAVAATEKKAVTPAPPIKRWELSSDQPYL

[9] = target: NDUFS7 (human) (UniProt O75251)
[10] = target: MTIF2 (human) (UniProt P46199)
[11] = target: MRPL21 (human) (UniProt Q7Z2W9)
[12] = target: PAM16 (human) (UniProt Q9Y3D7)
[13] = target: ECHS1 (human) (UniProt P30084)
[14] = target: OXCT1 (human) (UniProt P55809)
Chain of OXCT1 (human) (P55809 40-520 limits assumed): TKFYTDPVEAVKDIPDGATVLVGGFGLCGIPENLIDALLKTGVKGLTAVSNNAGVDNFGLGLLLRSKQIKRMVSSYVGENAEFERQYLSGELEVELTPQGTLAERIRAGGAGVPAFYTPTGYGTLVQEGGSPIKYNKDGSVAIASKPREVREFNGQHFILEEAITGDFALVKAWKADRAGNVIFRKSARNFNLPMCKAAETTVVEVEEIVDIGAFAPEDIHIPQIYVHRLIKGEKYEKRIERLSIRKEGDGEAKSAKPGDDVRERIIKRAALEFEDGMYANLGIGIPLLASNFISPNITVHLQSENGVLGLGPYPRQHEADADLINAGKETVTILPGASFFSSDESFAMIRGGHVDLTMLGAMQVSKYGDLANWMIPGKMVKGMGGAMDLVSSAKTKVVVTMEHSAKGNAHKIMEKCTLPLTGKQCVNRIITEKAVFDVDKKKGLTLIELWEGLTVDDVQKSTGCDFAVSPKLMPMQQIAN

[15] = target: TARS2 (human) (UniProt Q9BW92)
[16] = target: FECH (human) (UniProt P22830)
Chain of FECH (human) (P22830 55-423 limits assumed): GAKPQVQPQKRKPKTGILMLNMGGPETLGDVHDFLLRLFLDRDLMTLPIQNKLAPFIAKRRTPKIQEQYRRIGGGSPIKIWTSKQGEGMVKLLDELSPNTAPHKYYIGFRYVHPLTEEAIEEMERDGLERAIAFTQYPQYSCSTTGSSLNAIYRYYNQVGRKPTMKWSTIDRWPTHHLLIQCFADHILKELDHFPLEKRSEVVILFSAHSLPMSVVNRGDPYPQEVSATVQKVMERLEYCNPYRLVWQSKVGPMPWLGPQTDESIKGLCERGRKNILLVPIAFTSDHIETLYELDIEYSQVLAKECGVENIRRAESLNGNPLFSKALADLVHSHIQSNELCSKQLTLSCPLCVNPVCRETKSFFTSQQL

[17] = target: SUCLG2 (human) (UniProt Q96I99)
[18] = target: MRPL12 (human) (UniProt P52815)
[19] = target: NDUFAF3 (human) (UniProt Q9BU61)
[20] = target: SHMT2 (human) (UniProt P34897)
Chain of SHMT2 (human) (P34897 30-504 limits assumed): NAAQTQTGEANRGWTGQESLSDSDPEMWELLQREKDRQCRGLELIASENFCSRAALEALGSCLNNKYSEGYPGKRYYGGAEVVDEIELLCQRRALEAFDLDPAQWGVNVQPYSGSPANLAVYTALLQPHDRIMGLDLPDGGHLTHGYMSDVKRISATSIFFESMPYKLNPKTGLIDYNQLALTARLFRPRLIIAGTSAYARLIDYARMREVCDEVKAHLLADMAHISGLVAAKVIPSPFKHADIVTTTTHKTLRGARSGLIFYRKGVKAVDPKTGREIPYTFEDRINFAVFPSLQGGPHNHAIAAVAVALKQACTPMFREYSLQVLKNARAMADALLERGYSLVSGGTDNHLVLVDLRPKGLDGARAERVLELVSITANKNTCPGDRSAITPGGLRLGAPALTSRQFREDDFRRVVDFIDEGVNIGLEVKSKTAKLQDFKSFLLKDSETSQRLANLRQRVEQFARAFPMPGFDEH

[21] = target: MRPL47 (human) (UniProt Q9HD33)
[22] = target: IDE (human) (UniProt P14735)
[23] = target: ETFB (human) (UniProt P38117)
[24] = target: UQCRB (human) (UniProt P14927)
[25] = target: ACADVL (human) (UniProt P49748)
[26] = target: MRPL44 (human) (UniProt Q9H9J2)
[27] = target: CARS2 (human) (UniProt Q9HA77)
[28] = target: ALDH2 (human) (UniProt P05091)
[29] = target: PPA2 (human) (UniProt Q9H2U2)
[30] = target: FASTKD5 (human) (UniProt Q7L8L6)
[31] = target: NDUFA6 (human) (UniProt P56556)
Chain of NDUFA6 (human) (P56556 whole entry): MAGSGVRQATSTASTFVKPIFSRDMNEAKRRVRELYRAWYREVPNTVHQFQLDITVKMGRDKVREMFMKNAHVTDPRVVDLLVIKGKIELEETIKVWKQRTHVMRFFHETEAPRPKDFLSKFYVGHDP

[32] = target: GPT2 (human) (UniProt Q8TD30)
[33] = target: HIBCH (human) (UniProt Q6NVY1)
[34] = target: ACAA2 (human) (UniProt P42765)
[35] = target: NUBPL (human) (UniProt Q8TB37)
[36] = target: GBAS (human) (UniProt O75323)
[37] = target: MRPL14 (human) (UniProt Q6P1L8)
[38] = target: COX5B (human) (UniProt P10606)
Chain of COX5B (human) (P10606 32-129 limits assumed): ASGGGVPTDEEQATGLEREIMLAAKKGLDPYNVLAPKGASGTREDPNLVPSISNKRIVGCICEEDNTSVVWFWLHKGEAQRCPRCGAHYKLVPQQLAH

[39] = target: GLS (human) (UniProt O94925)
Chain of GLS (human) (O94925 55-669 limits assumed): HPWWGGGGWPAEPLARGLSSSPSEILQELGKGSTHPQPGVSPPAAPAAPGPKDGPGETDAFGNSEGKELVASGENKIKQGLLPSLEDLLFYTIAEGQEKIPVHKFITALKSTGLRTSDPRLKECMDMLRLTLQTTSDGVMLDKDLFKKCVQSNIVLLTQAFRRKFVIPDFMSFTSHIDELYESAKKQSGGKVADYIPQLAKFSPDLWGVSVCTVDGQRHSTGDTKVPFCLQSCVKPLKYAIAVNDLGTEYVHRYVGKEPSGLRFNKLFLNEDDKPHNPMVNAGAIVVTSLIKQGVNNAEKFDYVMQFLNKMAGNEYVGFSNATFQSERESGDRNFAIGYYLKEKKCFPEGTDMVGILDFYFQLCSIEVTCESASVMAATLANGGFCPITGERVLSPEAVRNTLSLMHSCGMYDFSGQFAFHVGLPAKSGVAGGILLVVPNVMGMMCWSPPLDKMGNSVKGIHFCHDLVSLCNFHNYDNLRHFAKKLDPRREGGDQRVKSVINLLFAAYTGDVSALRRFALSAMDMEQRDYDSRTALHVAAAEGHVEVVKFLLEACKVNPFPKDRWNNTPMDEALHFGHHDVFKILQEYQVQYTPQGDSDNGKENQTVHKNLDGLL

[40] = target: THNSL1 (human) (UniProt Q8IYQ7)
Chain of THNSL1 (human) (Q8IYQ7 whole entry): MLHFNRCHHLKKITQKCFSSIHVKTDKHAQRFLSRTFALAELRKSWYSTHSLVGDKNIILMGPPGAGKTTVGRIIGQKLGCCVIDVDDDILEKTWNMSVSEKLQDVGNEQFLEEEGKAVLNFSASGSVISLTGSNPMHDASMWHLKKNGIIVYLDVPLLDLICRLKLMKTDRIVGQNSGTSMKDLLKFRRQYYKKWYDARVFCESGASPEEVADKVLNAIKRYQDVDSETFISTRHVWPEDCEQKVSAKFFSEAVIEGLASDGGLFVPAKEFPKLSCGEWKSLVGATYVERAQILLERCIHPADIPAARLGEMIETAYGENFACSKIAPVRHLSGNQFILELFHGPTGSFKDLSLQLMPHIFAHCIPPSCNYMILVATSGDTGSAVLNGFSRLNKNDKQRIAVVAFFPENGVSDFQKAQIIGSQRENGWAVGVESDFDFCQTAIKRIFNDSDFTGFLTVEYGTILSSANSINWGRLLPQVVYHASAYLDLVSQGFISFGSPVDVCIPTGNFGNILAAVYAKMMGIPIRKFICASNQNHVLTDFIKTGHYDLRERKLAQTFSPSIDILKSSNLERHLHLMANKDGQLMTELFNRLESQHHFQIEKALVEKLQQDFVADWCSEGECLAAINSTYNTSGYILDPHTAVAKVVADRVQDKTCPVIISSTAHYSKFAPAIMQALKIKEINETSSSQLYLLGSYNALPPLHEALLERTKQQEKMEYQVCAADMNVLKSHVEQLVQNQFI

[41] = target: PDIA3 (human) (UniProt P30101)
Chain of PDIA3 (human) (P30101 25-505 limits assumed): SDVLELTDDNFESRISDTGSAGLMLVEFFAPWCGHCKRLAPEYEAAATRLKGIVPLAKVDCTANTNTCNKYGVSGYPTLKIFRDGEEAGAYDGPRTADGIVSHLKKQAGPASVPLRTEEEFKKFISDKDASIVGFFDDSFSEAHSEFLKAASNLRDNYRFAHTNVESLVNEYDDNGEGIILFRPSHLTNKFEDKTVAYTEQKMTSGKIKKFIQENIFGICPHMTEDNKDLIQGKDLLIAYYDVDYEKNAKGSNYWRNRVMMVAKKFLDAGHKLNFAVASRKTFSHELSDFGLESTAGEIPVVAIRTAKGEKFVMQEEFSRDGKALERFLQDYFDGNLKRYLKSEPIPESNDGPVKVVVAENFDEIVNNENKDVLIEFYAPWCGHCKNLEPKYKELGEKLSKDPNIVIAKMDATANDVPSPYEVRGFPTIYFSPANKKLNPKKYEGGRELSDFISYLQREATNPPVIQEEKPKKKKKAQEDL

[42] = target: DHTKD1 (human) (UniProt Q96HY7)
[43] = target: ARG2 (human) (UniProt P78540)
[44] = target: ABAT (human) (UniProt P80404)
Chain of ABAT (human) (P80404 29-500 limits assumed): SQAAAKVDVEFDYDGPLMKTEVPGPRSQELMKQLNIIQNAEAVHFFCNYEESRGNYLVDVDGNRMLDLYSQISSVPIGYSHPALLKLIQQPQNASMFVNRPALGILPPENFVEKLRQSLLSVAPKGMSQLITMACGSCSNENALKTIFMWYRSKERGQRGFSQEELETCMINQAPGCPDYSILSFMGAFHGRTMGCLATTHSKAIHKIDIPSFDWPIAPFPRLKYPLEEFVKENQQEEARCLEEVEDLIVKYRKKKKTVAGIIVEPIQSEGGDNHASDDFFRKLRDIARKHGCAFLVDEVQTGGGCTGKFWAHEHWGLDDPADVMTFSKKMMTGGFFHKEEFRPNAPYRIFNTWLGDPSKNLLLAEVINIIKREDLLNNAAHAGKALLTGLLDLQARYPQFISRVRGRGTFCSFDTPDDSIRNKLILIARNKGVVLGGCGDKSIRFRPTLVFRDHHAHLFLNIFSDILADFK

[45] = target: MRPS25 (human) (UniProt P82663)
[46] = target: HARS2 (human) (UniProt P49590)
Chain of HARS2 (human) (P49590 34-506 limits assumed): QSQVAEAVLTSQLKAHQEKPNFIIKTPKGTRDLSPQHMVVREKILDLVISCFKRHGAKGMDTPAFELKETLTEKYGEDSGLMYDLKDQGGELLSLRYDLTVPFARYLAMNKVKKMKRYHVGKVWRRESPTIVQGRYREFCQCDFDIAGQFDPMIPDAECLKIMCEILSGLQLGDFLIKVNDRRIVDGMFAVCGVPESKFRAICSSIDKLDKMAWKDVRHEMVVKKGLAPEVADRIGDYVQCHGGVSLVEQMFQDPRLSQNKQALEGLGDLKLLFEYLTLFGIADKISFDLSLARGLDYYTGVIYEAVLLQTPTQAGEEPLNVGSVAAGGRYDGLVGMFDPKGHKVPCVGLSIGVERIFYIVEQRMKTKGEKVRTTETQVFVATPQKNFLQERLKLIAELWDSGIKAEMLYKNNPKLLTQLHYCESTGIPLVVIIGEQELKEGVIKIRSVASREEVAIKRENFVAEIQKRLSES

[47] = target: MRPL48 (human) (UniProt Q96GC5)
[48] = target: ACAD9 (human) (UniProt Q9H845)
[49] = target: NIPSNAP1 (human) (UniProt Q9BPW8)
[50] = target: CLIC4 (human) (UniProt Q9Y696)
[51] = target: ABCB10 (human) (UniProt Q9NRK6)

Chain of PMPCA (human) (Q10713 34-525 limits assumed): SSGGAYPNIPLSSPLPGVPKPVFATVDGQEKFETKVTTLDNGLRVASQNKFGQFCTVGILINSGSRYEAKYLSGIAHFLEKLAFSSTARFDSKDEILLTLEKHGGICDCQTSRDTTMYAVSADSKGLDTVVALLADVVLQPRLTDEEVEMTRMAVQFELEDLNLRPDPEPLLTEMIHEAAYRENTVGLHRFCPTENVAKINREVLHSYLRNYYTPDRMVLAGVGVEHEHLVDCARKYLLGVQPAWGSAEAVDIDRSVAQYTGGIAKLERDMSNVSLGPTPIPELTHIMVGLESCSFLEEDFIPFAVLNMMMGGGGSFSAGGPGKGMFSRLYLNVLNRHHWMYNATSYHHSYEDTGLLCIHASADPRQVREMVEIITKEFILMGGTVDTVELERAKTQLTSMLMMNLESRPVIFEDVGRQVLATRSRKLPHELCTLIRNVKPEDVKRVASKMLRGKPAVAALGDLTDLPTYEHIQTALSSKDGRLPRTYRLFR

FlagBirA-ClpP (WT) (from UniProt P06709 1-321; Q16740 57-277) (enzyme)
Log2 Fold change (vs control) [1]: -4.31 log2 | Log2 Fold change (vs control) [2]: -3.82 log2 | Log2 Fold change (vs control) [3]: -0.58 log2 | Log2 Fold change (vs control) [4]: -1.21 log2 | Log2 Fold change (vs control) [5]: -0.17 log2 | Log2 Fold change (vs control) [6]: -4 log2 | Log2 Fold change (vs control) [7]: -5.46 log2 | Log2 Fold change (vs control) [8]: -3.81 log2 | Log2 Fold change (vs control) [9]: -1.81 log2 | Log2 Fold change (vs control) [10]: -5.55 log2 | Log2 Fold change (vs control) [11]: -4.52 log2 | Log2 Fold change (vs control) [12]: -5.91 log2 | Log2 Fold change (vs control) [13]: -1.49 log2 | Log2 Fold change (vs control) [14]: -2.58 log2 | Log2 Fold change (vs control) [15]: -1.95 log2 | Log2 Fold change (vs control) [16]: -1.56 log2 | Log2 Fold change (vs control) [17]: -3.08 log2 | Log2 Fold change (vs control) [18]: -3.32 log2 | Log2 Fold change (vs control) [19]: -0.73 log2 | Log2 Fold change (vs control) [20]: -0.51 log2 | Log2 Fold change (vs control) [21]: -4.52 log2 | Log2 Fold change (vs control) [22]: -1.97 log2 | Log2 Fold change (vs control) [23]: -1.35 log2 | Log2 Fold change (vs control) [24]: -4.7 log2 | Log2 Fold change (vs control) [25]: 0.55 log2 | Log2 Fold change (vs control) [26]: -5.04 log2 | Log2 Fold change (vs control) [27]: -0.21 log2 | Log2 Fold change (vs control) [28]: -0.17 log2 | Log2 Fold change (vs control) [29]: -1.38 log2 | Log2 Fold change (vs control) [30]: -4.91 log2 | Log2 Fold change (vs control) [31]: -1.08 log2 | Log2 Fold change (vs control) [32]: -3.7 log2 | Log2 Fold change (vs control) [33]: -1.55 log2 | Log2 Fold change (vs control) [34]: -0.88 log2 | Log2 Fold change (vs control) [35]: -4.17 log2 | Log2 Fold change (vs control) [36]: -2.79 log2 | Log2 Fold change (vs control) [37]: -3.46 log2 | Log2 Fold change (vs control) [38]: -5 log2 | Log2 Fold change (vs control) [39]: -0.71 log2 | Log2 Fold change (vs control) [40]: -1.55 log2 | Log2 Fold change (vs control) [41]: 0.03 log2 | Log2 Fold change (vs control) [42]: -5.25 log2 | Log2 Fold change (vs control) [43]: -0.16 log2 | Log2 Fold change (vs control) [44]: -2.58 log2 | Log2 Fold change (vs control) [45]: -3.91 log2 | Log2 Fold change (vs control) [46]: -1.3 log2 | Log2 Fold change (vs control) [47]: -4.17 log2 | Log2 Fold change (vs control) [48]: -0.76 log2 | Log2 Fold change (vs control) [49]: -1.19 log2 | Log2 Fold change (vs control) [50]: -0.49 log2 | Log2 Fold change (vs control) [51]: -0.24 log2
